Test results published in publication PMC11949052.

Assay: ELISA and Western blot of HEK293T supernatants
Conditions: glycan lost; control: wild type

Protein	expression_or_secretion, percent_of_wt
C1-esterase inhibitor (C1-INH): N253A (protein) parent chain: MASRLTLLTLLLLLLAGDRASSNPNATSSSSQDPESLQDRGEGKVATTVISKMLFVEPILEVSSLPTTNSTTNSATKITANTTDEPTTQPTTEPTTQPTIQPTQPTTQLPTDSPTQPTTGSFCPGPVTLCSDLESHSTEAVLGDALVDFSLKLYHAFSAMKKVETNMAFSPFSIASLLTQVLLGAGENTKTNLESILSYPKDFTCVHQALKGFTTKGVTSVSQIFHSPDLAIRDTFVNASRTLYSSSPRVLSNNSDANLELINTWVAKNTNNKISRLLDSLPSDTRLVLLNAIYLSAKWKTTFDPKKTRMEPFHFKNSVIKVPMMNSKKYPVAHFIDQTLKAKVGQLQLSHNLSLVILVPQNLKHRLEDMEQALSPSVFKAIMEKLEMSKFQPTLLTLPRIKVTTSQDMLSIMEKLEFFDFSYDLNLCGLTEDPDLQVSAMQHQTVLELTETGVEAAAASAISVARTLLVFEVQQPFLFVLWDQQHKFPVFMGRVYDPRA	no change
C1-esterase inhibitor (C1-INH): N352S (protein) parent chain: MASRLTLLTLLLLLLAGDRASSNPNATSSSSQDPESLQDRGEGKVATTVISKMLFVEPILEVSSLPTTNSTTNSATKITANTTDEPTTQPTTEPTTQPTIQPTQPTTQLPTDSPTQPTTGSFCPGPVTLCSDLESHSTEAVLGDALVDFSLKLYHAFSAMKKVETNMAFSPFSIASLLTQVLLGAGENTKTNLESILSYPKDFTCVHQALKGFTTKGVTSVSQIFHSPDLAIRDTFVNASRTLYSSSPRVLSNNSDANLELINTWVAKNTNNKISRLLDSLPSDTRLVLLNAIYLSAKWKTTFDPKKTRMEPFHFKNSVIKVPMMNSKKYPVAHFIDQTLKAKVGQLQLSHNLSLVILVPQNLKHRLEDMEQALSPSVFKAIMEKLEMSKFQPTLLTLPRIKVTTSQDMLSIMEKLEFFDFSYDLNLCGLTEDPDLQVSAMQHQTVLELTETGVEAAAASAISVARTLLVFEVQQPFLFVLWDQQHKFPVFMGRVYDPRA	no change
C1-esterase inhibitor (C1-INH): N352A (protein) parent chain: MASRLTLLTLLLLLLAGDRASSNPNATSSSSQDPESLQDRGEGKVATTVISKMLFVEPILEVSSLPTTNSTTNSATKITANTTDEPTTQPTTEPTTQPTIQPTQPTTQLPTDSPTQPTTGSFCPGPVTLCSDLESHSTEAVLGDALVDFSLKLYHAFSAMKKVETNMAFSPFSIASLLTQVLLGAGENTKTNLESILSYPKDFTCVHQALKGFTTKGVTSVSQIFHSPDLAIRDTFVNASRTLYSSSPRVLSNNSDANLELINTWVAKNTNNKISRLLDSLPSDTRLVLLNAIYLSAKWKTTFDPKKTRMEPFHFKNSVIKVPMMNSKKYPVAHFIDQTLKAKVGQLQLSHNLSLVILVPQNLKHRLEDMEQALSPSVFKAIMEKLEMSKFQPTLLTLPRIKVTTSQDMLSIMEKLEFFDFSYDLNLCGLTEDPDLQVSAMQHQTVLELTETGVEAAAASAISVARTLLVFEVQQPFLFVLWDQQHKFPVFMGRVYDPRA	no change
C1-esterase inhibitor (C1-INH): S354G (protein) parent chain: MASRLTLLTLLLLLLAGDRASSNPNATSSSSQDPESLQDRGEGKVATTVISKMLFVEPILEVSSLPTTNSTTNSATKITANTTDEPTTQPTTEPTTQPTIQPTQPTTQLPTDSPTQPTTGSFCPGPVTLCSDLESHSTEAVLGDALVDFSLKLYHAFSAMKKVETNMAFSPFSIASLLTQVLLGAGENTKTNLESILSYPKDFTCVHQALKGFTTKGVTSVSQIFHSPDLAIRDTFVNASRTLYSSSPRVLSNNSDANLELINTWVAKNTNNKISRLLDSLPSDTRLVLLNAIYLSAKWKTTFDPKKTRMEPFHFKNSVIKVPMMNSKKYPVAHFIDQTLKAKVGQLQLSHNLSLVILVPQNLKHRLEDMEQALSPSVFKAIMEKLEMSKFQPTLLTLPRIKVTTSQDMLSIMEKLEFFDFSYDLNLCGLTEDPDLQVSAMQHQTVLELTETGVEAAAASAISVARTLLVFEVQQPFLFVLWDQQHKFPVFMGRVYDPRA	no change
C1-esterase inhibitor (C1-INH): N238A (protein) parent chain: MASRLTLLTLLLLLLAGDRASSNPNATSSSSQDPESLQDRGEGKVATTVISKMLFVEPILEVSSLPTTNSTTNSATKITANTTDEPTTQPTTEPTTQPTIQPTQPTTQLPTDSPTQPTTGSFCPGPVTLCSDLESHSTEAVLGDALVDFSLKLYHAFSAMKKVETNMAFSPFSIASLLTQVLLGAGENTKTNLESILSYPKDFTCVHQALKGFTTKGVTSVSQIFHSPDLAIRDTFVNASRTLYSSSPRVLSNNSDANLELINTWVAKNTNNKISRLLDSLPSDTRLVLLNAIYLSAKWKTTFDPKKTRMEPFHFKNSVIKVPMMNSKKYPVAHFIDQTLKAKVGQLQLSHNLSLVILVPQNLKHRLEDMEQALSPSVFKAIMEKLEMSKFQPTLLTLPRIKVTTSQDMLSIMEKLEFFDFSYDLNLCGLTEDPDLQVSAMQHQTVLELTETGVEAAAASAISVARTLLVFEVQQPFLFVLWDQQHKFPVFMGRVYDPRA	no change
C1-esterase inhibitor (C1-INH): S255G (protein) parent chain: MASRLTLLTLLLLLLAGDRASSNPNATSSSSQDPESLQDRGEGKVATTVISKMLFVEPILEVSSLPTTNSTTNSATKITANTTDEPTTQPTTEPTTQPTIQPTQPTTQLPTDSPTQPTTGSFCPGPVTLCSDLESHSTEAVLGDALVDFSLKLYHAFSAMKKVETNMAFSPFSIASLLTQVLLGAGENTKTNLESILSYPKDFTCVHQALKGFTTKGVTSVSQIFHSPDLAIRDTFVNASRTLYSSSPRVLSNNSDANLELINTWVAKNTNNKISRLLDSLPSDTRLVLLNAIYLSAKWKTTFDPKKTRMEPFHFKNSVIKVPMMNSKKYPVAHFIDQTLKAKVGQLQLSHNLSLVILVPQNLKHRLEDMEQALSPSVFKAIMEKLEMSKFQPTLLTLPRIKVTTSQDMLSIMEKLEFFDFSYDLNLCGLTEDPDLQVSAMQHQTVLELTETGVEAAAASAISVARTLLVFEVQQPFLFVLWDQQHKFPVFMGRVYDPRA	no change
